From patent US9057734B2, “Optogenetic probes for measuring membrane potential” (President and Fellows of Harvard College, priority 2010, dated 2015) come the findings set out here.

“Also recorded” adds a separate entry of the source.

The subject of one data set is E. coli. The data set can be described thus: Chemical perturbation of fluorescence flashing of E. coli expressing PROPS. The format is cell-based. Conditions: 20 μg/mL. An excerpt: PROPS was expressed in E. coli, the cells were immobilized on a glass coverslip, and imaged in an inverted epifluorescence microscope while gently flowing minimal medium at pH 7 over the cells. […] The flashes occurred simultaneously (to within the 10 ms imaging resolution) and homogeneously over the extent of a cell. Flashes were uncorrelated between neighboring cells.
Flashing cells were subjected to chemical perturbations in an effort to deduce the mechanism of the voltage changes. In unstirred medium in a sealed chamber, the flashing ceased over ˜15 minutes; but re-started upon addition of freshly oxygenated medium. Removal of oxygen from the medium using Oxyrase also reversibly eliminated flashing. From these experiments it was concluded that flashing requires aerobic respiration. Under continuous gentle flow of aerated minimal medium, cells flashed continuously for >1 hr. Cells stored in minimal media for several days at 4° C. started flashing when warmed to room temperature.
Flashing was highly sensitive to pHo, occurring only between pH 7 and 9. Flashing frequencies increased and on-time decreased at lower pH. Flashing was more likely to be periodic at lower pH. Extremes of pH (<6 or >9.5) irreversibly eliminated flashing, causing cells to enter the bright state in an abrupt transition.

A further data set concerns HEK-293 cells. The data set can be described thus: Fluorescence versus membrane potential under whole-cell voltage clamp (ramp, step, frequency response, noise). In kind it is cell-based, human. Here is the method:
Fluorescence of Arch 3 in HEK 293 cells was readily imaged in an inverted fluorescence microscope with red illumination (λ=640 nm, I=540 W/cm^2), a high numerical aperture objective, a Cy5 filter set, and an EMCCD camera. […] Cells not expressing Arch were not fluorescent.
HEK-293 cells were grown at 37° C., 5% CO2, in DMEM supplemented with 10% FBS and penicillin-streptomycin. Plasmids were transfected using LIPOFECTAMINE™ and PLUS reagent (Invitrogen) following the manufacturer's instructions, and assayed between 48-72 hours later. The day before recording, cells were re-plated onto glass-bottom dishes (MatTek) at a density of ˜5000 cells/cm^2.
The concentration of endogenous retinal in the HEK cells was not known, so the cells were supplemented with retinal by diluting stock retinal solutions (40 mM, DMSO) in growth medium to a final concentration of 5 μM, and then placing the cells back in the incubator for 1-3 hours. All imaging and electrophysiology were performed in Tyrode's buffer (containing, in mM: 125 NaCl, 2 KCl, 3 CaCl2, 1 MgCl2, 10 HEPES, 30 glucose pH 7.3, and adjusted to 305-310 mOsm with sucrose). Only HEK cells having reversal potentials between −10 and −40 mV were included in the analysis.
Simultaneous fluorescence and whole-cell patch clamp recordings were acquired on a home-built, inverted epifluorescence microscope at room temperature. A diode laser operating at 100 mW, 640 nm (CrystaLaser, DL638-100-O) provided wide-field illumination at an intensity typically between 500-2000 W/cm^2. To minimize background signal from out-of-focus debris, illumination was often performed in through-the-objective total internal reflection fluorescence (TIRF) mode. Fluorescence emission was collected using a 60×, 1.45 NA oil immersion objective (Olympus), and separated from scattered excitation using a 660-760 nm bandpass emission filter (Chroma). For fast imaging of dynamic fluorescence responses and action potentials, images were acquired on an Andor iXon^+ 860 camera operating at up to 2,000 frames/s (using a small region of interest and pixel binning). Slower images with higher spatial resolution were acquired on an Andor iXon^+ 897 EMCCD. Custom software written in LabView (National Instruments) was used to synchronize illumination, collection of images, recording of membrane potential and cell current, and application of electrical stimuli to the cell.
Filamented glass micropipettes (WPI) were pulled to a tip resistance of 3-10 MΩ, fire polished, and filled with internal solution (containing, in mM: 125 Potassium gluconate, 8 NaCl, 0.6 MgCl2, 0.1 CaCl2, 1 EGTA, 10 HEPES, 4 Mg-ATP, 0.4 Na-GTP, pH 7.3; adjusted to 295 mOsm with sucrose). The micropipettes were positioned with a Burleigh PCS 5000 micromanipulator. Whole-cell, voltage clamp recordings were acquired using an AxoPatch 200B amplifier (Molecular Devices), filtered at 2 kHz with the internal Bessel filter, and digitized with a National Instruments PCIE-6323 acquisition board at 10 kHz. Ambient 60 Hz noise was removed using a HumBug Noise Eliminator (AutoMate Scientific). For experiments requiring rapid modulation of transmembrane potential, series resistance and whole-cell capacitance were predicted to 95% and corrected to ˜50%. Electrical stimuli were generated using the PCIE-6323 acquisition board and sent to the AXOPATCH™, which then applied these signals in either constant current or constant voltage mode.
To measure fluorescence as a function of membrane potential, a triangle wave was applied, with amplitude from −150 mV to +150 mV and period 12 s, with video recording at 100 ms per frame. A pixel weight matrix was calculated according to Eq. S2 and applied to the movie images to generate a fluorescence number for each frame. These fluorescence values were divided by their minimum value (at V=−150 mV). The result is plotted as a function of Vin FIGS. 7 and 8. […]

A short description of data set [1]: Spectroscopic characterization of purified Arch WT and D95N. The format is physicochemical. Here is the method: FIGS. 17A-17C show pH-dependent spectra of Arch 3 WT and D95N. […] At neutral pH, Arch absorbed maximally at 558 nm. Fluorescence emission (dashed line) was recorded on 2 μM protein solubilized in 1% DM, with λexc=532 nm. […] The absorption maximum was at 585 nm. […] Singular Value Decomposition of absorption spectra between 400-750 nm was used to calculate the fraction of the SB in the protonated state as a function of pH. The result was fit to a Hill function to determine the pKa of the SB.
Arch and its D95N mutant were expressed and purified from E. coli, following Bergo, V., et al. (Conformational changes detected in a sensory rhodopsin II-transducer complex. J. Biol. Chem. 278, 36556-36562 (2003)). Briefly, E. coli (strain BL21, pet28b plasmid) was grown in 1 L of LB with 100 μg/mL kanamycin, to an O.D 600 of 0.4 at 37° C. All-trans retinal (5 μM) and inducer (IPTG 0.5 mM) were added and cells were grown for an additional 3.5 hours in the dark. Cells were harvested by centrifugation and resuspended in 50 mM Tris, 2 mM MgCl2 at pH 7.3 and lysed with a tip sonicator for 5 minutes. The lysate was centrifuged and the pellet was resuspended in PBS supplemented with 1.5% dodecyl maltoside (DM). The mixture was homogenized with a glass/teflon Potter Elvehjem homogenizer and centrifuged again. The supernatant was concentrated and washed using a centricon 30k MWCO filter to a final volume of 3 mL.
The absorption spectra of purified Arch 3 WT and D95N were determined using an Ocean Optics USB4000 spectrometer with a DT-MINI-2-GS light source. Absorption spectra, for Arch 3 WT and D95N, were measured as a function of pH between pH 6 and 11. To determine the fluorescence emission spectra, proteins in a quartz cuvette were illuminated with the uncollimated beam of a 100 mW, 532 nm laser (Dragon Lasers, 532GLM100) or a 25 mW, 633 nm HeNe laser (Spectra-Physics). Scattered laser light was blocked with a 532 nm Raman notch filter (Omega Optical, XR03) or a 710/100 emission filter (Chroma), and fluorescence was collected perpendicular to the illumination with a 1000 micron fiber, which passed the light to an Ocean Optics QE65000 spectrometer. Spectra were integrated for 2 seconds.
The fluorescence quantum yields of Arch 3 WT and D95N were determined by comparing the integrated emission intensity to emission of a sample of the dye ALEXA FLUOR® 647 Conjugate. Briefly, the concentrations of micromolar solutions of dye and protein were determined using a visible absorption spectrum. […] The fluorescence emission spectra of dye and protein samples were measured with 633 nm excitation. The quantum yield was then determined by the formula
where Fl is the integrated fluorescence from 660 to 760 nm, ε is the extinction coefficient at 633 nm and c is the concentration.

Another data set concerns neurons. The data set can be described thus: Light-induced photocurrent and perturbation of membrane potential in neurons. The format is cell-based, rat. Conditions: 640 nm, 1800 W/cm2. An excerpt:
Under illumination conditions typically used for imaging neural activity (I=1800 W/cm2 in total internal reflection (TIR) mode), the light-induced outward photocurrent was typically 10 pA in neurons expressing Arch 3 WT. Under current-clamp conditions this photocurrent shifted the resting potential of the neurons by up to −20 mV. For neurons near their activation threshold, this photocurrent could suppress firing (FIG. 9A), so we explored the non-pumping variant D95N as a voltage indicator in neurons.
Whole-cell current clamp recordings were obtained from mature neurons under the same conditions used for HEK cells recordings. Series resistance and pipette capacitance were corrected. Only neurons having resting potentials between −50 and −70 mV were used in the analysis.

The next data set deals with HEK cells. The data set can be described thus: Photocurrents under 640 nm illumination in voltage-clamped cells. The conditions noted are these: illumination at 640 nm. In kind it is cell-based, human. Here is the method:
Measurements of photocurrents were performed on HEK cells held in voltage clamp at 0 mV while being exposed to brief (200 ms) pulses of illumination at 640 nm at an intensity of 1800 W/cm^2.

On to `N#CC(C#N)=NNc1cccc(Cl)c1` [CCCP, Carbonyl cyanide 3-chlorophenylhydrazone], for which, in the data set with E. coli, the effect on blinking result is “rapidly and irreversibly eliminated the blinking”.

B1: Arch D95N: D95N mutant of Archaerhodopsin 3 without photocurrent, voltage indicator (protein, UniProt P96787 7-258, looked up, variant D95N)
Archaerhodopsin-3: QAGYDLLGDGRPETLWLGIGTLLMLIGTFYFLVRGWGVTDKDAREYYAVTILVPGIASAAYLSMFFGIGLTEVTVGGEMLDIYYARYANWLFTTPLLLLDLALLAKVDRVTIGTLVGVDALMIVTGLIGALSHTAIARYSWWLFSTICMIVVLYFLATSLRSAAKERGPEVASTFNTLTALVLVLWTAYPILWIIGTEGAGVVGLGIETLLFMVLDVTAKVGFGFILLRSRAILGDTEAPEPSAGADVSAAD
Take B1: the “comparison with Arch 3 WT” value with HEK-293 cells is “more sensitive and brighter than Arch 3 WT, but had a slower response”. The voltage steps resolved/reported in the data set with HEK-293 cells (HEK cells) came to 10 mV. Also, the “fast component of step response, time” value in the data set on HEK-293 cells (step response) was less than 500 μs. Further, the “response time to a step in membrane potential” value in the data set on HEK-293 cells (steps between −70 mV and +30 mV) worked out at 40 ms. The “increase of fluorescence (fold/factor) between −150 mV and +150 mV” value in the data set on HEK-293 cells (whole-cell voltage clamp) is reported as 3. Also, the ε633 in data set [1] (calibrated assuming peak extinction coefficient of Bacteriorhodopsin, 63,000 M^−1 cm^−1) is 37,500 M^−1cm^−1. For the same molecule, the QY in data set [1] (comparison to Alexa 647, excitation at 633 nm) is listed as 4 × 10^−4. The “effect of illumination on membrane potential” value with neurons is reported as “no effect of illumination on spiking or resting potential; also recorded: did not perturb membrane potential”. For the same molecule, the results for the “photocurrent / photoinduced proton pumping” value in the data set on HEK cells and with HEK cells (listed as Arch 3 D95N) were “no photocurrent; also recorded: eliminated the photocurrent” and “lacks photoinduced proton pumping”, respectively.
